The source of these data is patent US20240209089A1 (SUZHOU SMARTNUCLIDE BIOPHARMACEUTICAL, published 2024).

Positions count from the first letter of the chain named. Where “and” joins values, the source holds several entries; their conditions need not be identical. Identical values can stand only once.

Assay [1] deals with T1, human CD8α full-length protein (human, UniProt P01732 22-235).
T1 construct: whole, on cells; The same entry is used for MC38-CD8α transfectants and for human CD8+ T cells from peripheral blood; the assay field says which cells; also called cell surface CD8α; MC38-CD8α cells
T1 sequence (P01732 22-235): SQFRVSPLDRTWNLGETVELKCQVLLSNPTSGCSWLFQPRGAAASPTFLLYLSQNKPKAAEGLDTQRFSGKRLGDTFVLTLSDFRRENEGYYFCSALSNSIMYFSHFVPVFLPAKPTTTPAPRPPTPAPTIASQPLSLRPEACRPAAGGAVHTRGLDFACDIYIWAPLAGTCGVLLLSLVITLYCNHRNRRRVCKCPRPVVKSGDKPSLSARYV
Put plainly: radioligand saturation binding on MC38-CD8 cells, 4 °C, one-site fit. On the procedure: (§1) Receptor binding reaction: a radioligand saturation method was used, total binding and non-specific binding groups were included.
(§2) The cells were incubated for 2 h at 4° C. After that, the supernatant was extracted, the cells were washed 6 times with PBS pre-cooled at 4° C., and 200 μL of PBS was added into each well every time. Finally, the filter membrane was collected, the radioactivity count of each tube of sample and standard sample was measured on the γ counter. Finally, saturation curve fitting was performed by using Prism 7.0 (GraphPad Software, Inc.) software according to the single-point binding model, and then KD and Bmax were calculated.

Assay [2] addresses T1, human CD8α full-length protein. As to the kind of experiment: saturation radioligand binding on MC38-CD8 cells, 2 h at 4 °C, one-site fit; panel assigned through the KD of Table 8 (3.8 nM, 125I-SNA006c). Here is the method:
as §1, §2

Assay [3] addresses T2, CD8α-Fc fusion protein (human).
T2 construct: also called CD8 α-Fc protein; CD8α-Fc tag antigen
Put plainly: ELISA on coated CD8α-Fc, anti-his-HRP, four-parameter fit. On the procedure:
(§3) The CD8 α-Fc protein was transiently expressed by HEK293 and purified by protein A affinity chromatography. The plate was coated with the obtained CD8α-Fc protein in a concentration of 0.5 μg/well at 4° C. overnight, and then the gradient dilution series of the obtained anti-CD8α single domain antibody protein was added to react for 1 hour at room temperature. After washing, anti-his horseradish peroxidase labeled antibody was added to react for 1 hour at room temperature. After washing, a chromogenic solution was added, and an absorption value at 450 nm was read. The data processing and plotting analysis were performed by using software SotfMaxPro v5.4. […] Of the 10 selected antibodies (see Table 5 for details), the relative activities of different anti-CD8α single domain antibodies were compared by using C2-cHis as control, so as to reflect the affinity of the antibodies on CD8α. Of the 10 tested antibodies, C37, C42, C46, S5 and S36 have relatively high binding activity.
In general terms: In an ELISA, binding on a coated surface is turned into a signal by an enzyme label.

For assay [4], the target named is T2, CD8α-Fc fusion protein. As to the kind of experiment: ELISA on coated CD8α-Fc; C2-cHis is the control (=100). On the procedure:
as §3

For assay [5], the target named is T1, human CD8α full-length protein. As to the kind of experiment: flow cytometry on MC38-CD8α cells, secondary antibody-PE. Here is the method:
Mouse colon cancer MC38 cell lines stable transfected with human CD8α full-length protein gene were constructed to obtain MC38 cells (MC38-CD8α cells) stably expressing human CD8α proteins on the cell membrane. Prior to use, the cells were cultured to >90% convergence. The anti-CD8α single domain antibody was used to perform flow cytometry on these cells for quantitative analysis of indirect immunofluorescence staining so as to determine the quantity of receptors on surface of each cell.
The cells were collected and suspended to a concentration of 2.5×10⁶ cells/mL. 200 μL of cell aliquot samples were mixed with 20 μL of primary antibody, and the obtained mixture was incubated for 30 min on ice. The cells were centrifuged, washed and re-suspended, then 5 μL of secondary antibody-PE conjugate was added, and then the above mixture was incubated for 30 minutes on ice. The cells were washed twice, re-suspended and underwent flow cytometry on BD FACSCelesta™. For each tube, at least 5×10⁴ events were collected. All the analyses were single colors, and PE was detected in […].

Assay [6] has the same target. As to the kind of experiment: competition radioligand binding on MC38-CD8 cells, 2 h at 4 °C; unlabeled SNA006a varied against the tracer 125I-SNA006a. Here is the method: (§4) The 96-well cell suction filter plate was saturated with a binding buffer and dried in air before use.
(§5) After reaction for 2 hours at 4° C., the reaction solution in the suction filter plate was drained using auxiliary equipment of a vacuum pump and the suction filter plate, 200 μL of PBS buffer (0.01 M, pH=7.4) was added into each well and drained, and the cells were repeatedly washed for 6 times. After the filter membrane at the bottom of the suction filter plate was dried, the filter membrane at the bottom was collected, and a γ counter was used for measurement. Calculation and plotting were performed by using Prism 7.0 (GraphPad Software, Inc.), and the half inhibition concentration IC50 was calculated by nonlinear regression analysis. Four parallel samples were set at each experimental point, and the experiment was repeated twice. The result given in this experiment is an average value plus a standard deviation.

Assay [7] shares this target. Put plainly: competition binding on MC38-CD8 cells, displacement of ^125I-SNA006a, 4 °C, 2 h. On the procedure: as §4, §5
The target of assay [8] is T3, CD8α-cHis fusion protein (UniProt P01732 22-182).
T3 construct: not shown: C-terminal His tag
T3 sequence (P01732 22-182): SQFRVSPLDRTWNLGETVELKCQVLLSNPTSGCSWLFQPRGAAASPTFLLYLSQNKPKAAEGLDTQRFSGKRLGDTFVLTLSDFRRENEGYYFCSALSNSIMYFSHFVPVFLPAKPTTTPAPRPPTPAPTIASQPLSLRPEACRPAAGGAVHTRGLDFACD
Put plainly: BLI (ForteBio Octet), biotinylated antibody on SA sensor, CD8α-chis 6.25-100 nM. Here is the method:
The anti-CD8α single domain antibody-biontin was fixed on an SA biological sensor. Then, CD8α-chis with a concentration of 6.25-100 nM bound to a nano antibody and then dissociated. The binding dynamic variables of four antibodies C37, C42, C46 and S5 were evaluated and determined by using Octet Data Analysis version 9.0, including Kon, Koff and Kd.
(In BLI a coated tip is dipped into the sample, and binding shifts an interference pattern.)

Assay [9] concerns the target T2, CD8α-Fc fusion protein. As to the kind of experiment: ELISA on coated CD8α-Fc, relative to C2-cHis control. On the procedure: as §3
Assay [10] has as its target T2, CD8α-Fc fusion protein. As to the kind of experiment: ELISA on coated CD8α-Fc, antibody after exchange into NaHCO3 buffer, relative to the uncoupled antibody as standard. On the procedure: By using PD-10 column (GE), the buffer of the CD8α-cHis single domain antibody (including C37, C46 and S5) was changed to a NaHCO3 buffer solution with a certain pH, and p-SCN-Bn-NOTA (Macrocyclics, article No. B-605) was dissolved into DMSO with a concentration of 25 mg/mL, and the p-SCN-Bn-NOTA solution whose molar was twice that of lysine on the single domain antibody was added into the CD8α single domain antibody, the above materials reacted for a certain time period at room temperature, the conjugated product was purified by PD-10 column (GE) and concentrated by ultrafiltration.
The activity of the above CD8α-NOTA after labeling was determined by ELISA. The specific method is as follows: the CD8α-Fc fusion protein was placed in the coated plate in a concentration of 5 μg/well at 4° C. overnight. After blocking with 3% BSA at 37° C., samples subjected to gradient dilution (the uncoupled CD8α single domain antibody was a standard substance) were added to act for 1 hour at 37° C. Then, anti-his-HRP (purchased from Abcam Company) was added to react for 1 hour at room temperature. Then, a chromogenic solution was added, and the absorption value at 450 nm was read.

T2 sequence (chain, as listed by the source): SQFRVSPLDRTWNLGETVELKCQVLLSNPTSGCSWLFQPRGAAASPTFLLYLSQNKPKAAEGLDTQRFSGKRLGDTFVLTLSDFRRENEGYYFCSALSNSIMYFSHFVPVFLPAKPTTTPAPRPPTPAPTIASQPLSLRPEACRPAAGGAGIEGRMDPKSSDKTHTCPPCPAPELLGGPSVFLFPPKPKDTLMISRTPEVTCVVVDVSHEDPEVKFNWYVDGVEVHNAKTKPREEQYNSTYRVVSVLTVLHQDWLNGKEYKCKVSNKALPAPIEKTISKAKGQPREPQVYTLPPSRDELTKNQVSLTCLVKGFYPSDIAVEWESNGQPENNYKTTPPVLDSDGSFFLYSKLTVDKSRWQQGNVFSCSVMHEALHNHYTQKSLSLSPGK

B1: ^125I-SNA006c (VHH)
VHH: QVQLVESGGGLVQAGGSLRLSCAASGVTFDDLAIGWFRQVPGKGREGVSTIGTSDGTAYYADSVKGRFTISSDNAKNTVYLQMNSLKPEDTAVYYCAVDLDYGLGSLLPMGYDYWGQGTQVTVSS
modifications: 125I label by the chloramine T method; labelled residues not stated
B1: the dissociation constant (Kd) in [1] is 3.8 nM; in assay [2], 3.84 nM.

B2: C2-cHis antibody (VHH)
VHH: QVQLVESGGGLVQPGGSLRLSCAASGFTLDYYAIGWFRQAPGKEREGISCIRIYDGNTYSAESVKGRFTISSDNAKNQVYLQINTLKPEDTAVYYCAAGSYYSCSVYPDYDMDYWGKGTLVTVSS
notes: HEK293 construct; An E. coli (PET22b) preparation is also described
With B2, the EC50 in [3] is 2.2 ng/mL and 3.18 ng/mL and 4.11 ng/mL. The “Relative activity (%)” value in [4] is 100%. Also, in [5], the “Positive rate (%)” value came to 99.9%.

B3: C37-cHis antibody (VHH)
VHH: B2 VHH with V2L, P14A, F27L, L29F, D30E, Y31D
notes: HEK293 construct; an E. coli preparation is also described; Biotinylated for the ForteBio assay; also called C37-his; SNA006a
As to B3, in assay [6], the IC50 was found to be 3.02 nM and the “IC50 (read off the curve)” value was roughly 3 nM. The EC50 in [3] worked out at 0.989 ng/mL. In assay [7], this molecule gave an IC50 of roughly 3 nM. In assay [8], this molecule registered a Kd of 0.644 nM, a koff of 0.000311 s⁻¹ and a kon of 483000 M⁻¹ s⁻¹. Moreover, the “Relative activity (%)” value in assay [9] turned out to be 322%. Also, the “Relative activity of CD8α-cHis-NaHCO3 (%)” value in assay [10] was determined as 76%. For the same molecule, the “Positive rate (%)” value in [5] came to 99.8%.

The Kd is a measure of binding affinity in units of concentration. High values mean lower affinity, low ones higher affinity. One may read the EC50 as the concentration that produces a half-maximal response. High values mean a less potent agent, low ones a more potent agent. As usually defined, the IC50 is the point on the concentration scale where inhibition reaches its midpoint. One may read the koff as the rate constant with which the complex falls apart. Lower therefore signals a long-lived complex. In general, kon refers to the rate constant with which the complex forms.
